# Measured values as given in patent US20240382605A1, “CONJUGATED OLIGONUCLEOTIDES AND USES THEREOF” (Ionis Pharmaceuticals, Inc., priority 2021, published 2024).
# Assays:
# [1] = Example 8: hematology assays / blood cell counts in hTFR^KI/+ knock in mice; type: in vivo, mouse; details: for Mean corpuscular volume (MCV) / hematocrit (HCT) / hemoglobin (HGB) / mean corpuscular hemoglobin (MCH) / mean corpuscular hemoglobin concentration (MCHC) / red blood cell (RBC) count / white blood cell (WBC) count: blood day 15; for BAS (basophils) / LYM (lymphocytes) / MON (monocytes) / NEU (neutrophils) / PLT (platelets) / RETI (reticulocytes): day 15;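 for all read-outs here: mice given conjugated modified oligonucleotide, three doses total, blood cell counts measured at sacrifice, PBS-treated group of 4 mice serves as negative control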
# From the text: (§1) Each mouse received an intravenous (i.v.) administration or subcutaneous (s.c.) administration of conjugated modified oligonucleotide for a total of 3 doses (on Days 1, 5, and 9) at doses indicated in the table below. […] A group of 4 mice received PBS as a negative control.
# Blood obtained from mice on the day the mice were sacrificed (day 15) were sent to IDEXX BioResearch for measurement of blood cell counts. Counts taken include red blood cell (RBC) count, white blood cell (WBC) count, hemoglobin (HGB), hematocrit (HCT), Mean corpuscular volume (MCV), mean corpuscular hemoglobin (MCH), and mean corpuscularhemoglobin concentration (MCHC). Individual white blood cell counts, such as that of monocytes (MON), neutrophils (NEU), lymphocytes (LYM), eosinophils (EOS), basophils (BAS), reticulocytes, and platelets were evaluated.
# mouse DMPK RNA = experiment: Example 8: mouse DMPK RNA and ED50 in tissues of hTFR^KI/+ knock in mice, multiple dose (RTPCR, day 15); type: in vivo;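 note: conjugated oligonucleotide given as three doses to hTFR^KI/+ knock-in mice, tissues taken at day 15 and mouse DMPK RNA quantified by real-time RT-PCR against PBS-treated controls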
# Method: The activity and tolerability of modified oligonucleotides conjugated to CD71 bicycle ligands were tested in hTFR^KI/+ knock in mice (described herein above).
# as §1
# The mice were sacrificed six days post final administration (on day 15), and RNA was extracted from various muscle tissues (including quadriceps (Quad), tibialis anterior (TA), diaphragm, triceps, heart, gastrocnemius (gastroc)), aorta, sciatic nerve, and liver tissue for quantitative real time RTPCR analysis to measure amount of mouse DMPK RNA using mouse primer probe set RTS3181 (described herein above).
# [2] = Example 8: plasma chemistry markers in hTFR^KI/+ knock in mice; type: in vivo, mouse; details: plasma day 15;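 note: plasma levels read on an automated clinical chemistry analyzer after three doses of conjugated modified oligonucleotide, with a PBS-treated group as negative control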
# From the text: as §1
# To evaluate the effect of modified oligonucleotides on liver and kidney function, plasma levels of albumin (ALB), alanine aminotransferase (ALT), aspartate aminotransferase (AST), blood urea nitrogen (BUN), total bilirubin (TBIL), total Protein (PROT), Creatine (CREAT), and Creatine Kinase (CK) were measured on the day the mice were sacrificed (day 15) using an automated clinical chemistry analyzer (Hitachi Olympus AU400c, Melville, NY).
# [3] = Example 8: body and organ weights in hTFR^KI/+ knock in mice; type: in vivo, mouse; details: for Organ weight Kidney / Organ weight Liver / Organ weight Spleen: day 15
# Method: as §1
# Liver, kidney, and spleen weights were measured on the day the mice were sacrificed (day 15), and the average organ weights for each group are presented in the tables below.
# [4] = reduction of mouse DMPK RNA, i.v., 3 doses on Days 1, 5, 9
substance,measurement,setting,value
1590463 BCY17896 (CPXDAYLGCXSYCX; not fully specified; non-natural residues; cyclised or stapled),Mean corpuscular volume (MCV),"[1]; i.v. 1 mg/kg on Days 1, 5, 9",40 fL
same,hematocrit (HCT),"[1]; i.v. 1 mg/kg on Days 1, 5, 9",47%
same,hemoglobin (HGB),"[1]; i.v. 1 mg/kg on Days 1, 5, 9",15 g/dL
same,mean corpuscular hemoglobin (MCH),"[1]; i.v. 1 mg/kg on Days 1, 5, 9",13 pg
same,mean corpuscular hemoglobin concentration (MCHC),"[1]; i.v. 1 mg/kg on Days 1, 5, 9",32 g/dL
same,red blood cell (RBC) count,"[1]; i.v. 1 mg/kg on Days 1, 5, 9",12 10^12/L
same,white blood cell (WBC) count,"[1]; i.v. 1 mg/kg on Days 1, 5, 9",8 10^3/μL
same,Mean corpuscular volume (MCV),"[1]; i.v. 10 mg/kg on Days 1, 5, 9",41 fL
same,hematocrit (HCT),"[1]; i.v. 10 mg/kg on Days 1, 5, 9",47%
same,hemoglobin (HGB),"[1]; i.v. 10 mg/kg on Days 1, 5, 9",15 g/dL
same,mean corpuscular hemoglobin (MCH),"[1]; i.v. 10 mg/kg on Days 1, 5, 9",13 pg
same,mean corpuscular hemoglobin concentration (MCHC),"[1]; i.v. 10 mg/kg on Days 1, 5, 9",31 g/dL
same,red blood cell (RBC) count,"[1]; i.v. 10 mg/kg on Days 1, 5, 9",11 10^12/L
same,white blood cell (WBC) count,"[1]; i.v. 10 mg/kg on Days 1, 5, 9",9 10^3/μL
same,Diaphragm mouse DMPK RNA (% control),"mouse DMPK RNA; i.v. 1 mg/kg on Days 1, 5, 9",60 % control
same,Gastrocnemius mouse DMPK RNA (% control),"mouse DMPK RNA; i.v. 1 mg/kg on Days 1, 5, 9",75 % control
same,Heart mouse DMPK RNA (% control),"mouse DMPK RNA; i.v. 1 mg/kg on Days 1, 5, 9",81 % control
same,Quadriceps mouse DMPK RNA (% control),"mouse DMPK RNA; i.v. 1 mg/kg on Days 1, 5, 9",74 % control
same,Tibialis Anterior mouse DMPK RNA (% control),"mouse DMPK RNA; i.v. 1 mg/kg on Days 1, 5, 9",84 % control
same,Diaphragm mouse DMPK RNA (% control),"mouse DMPK RNA; i.v. 10 mg/kg on Days 1, 5, 9",16 % control
same,Gastrocnemius mouse DMPK RNA (% control),"mouse DMPK RNA; i.v. 10 mg/kg on Days 1, 5, 9",28 % control
same,Heart mouse DMPK RNA (% control),"mouse DMPK RNA; i.v. 10 mg/kg on Days 1, 5, 9",56 % control
same,Quadriceps mouse DMPK RNA (% control),"mouse DMPK RNA; i.v. 10 mg/kg on Days 1, 5, 9",23 % control
same,Tibialis Anterior mouse DMPK RNA (% control),"mouse DMPK RNA; i.v. 10 mg/kg on Days 1, 5, 9",28 % control
same,Creatine (CREAT),"[2]; i.v. 1 mg/kg on Days 1, 5, 9",0.16 mg/dL
same,alanine aminotransferase (ALT),"[2]; i.v. 1 mg/kg on Days 1, 5, 9",40 U/L
same,albumin (ALB),"[2]; i.v. 1 mg/kg on Days 1, 5, 9",2.82 g/dL
same,aspartate aminotransferase (AST),"[2]; i.v. 1 mg/kg on Days 1, 5, 9",111 U/L
same,blood urea nitrogen (BUN),"[2]; i.v. 1 mg/kg on Days 1, 5, 9",24 mg/dL
same,total Protein (PROT),"[2]; i.v. 1 mg/kg on Days 1, 5, 9",4.83 g/dL
same,total bilirubin (TBIL),"[2]; i.v. 1 mg/kg on Days 1, 5, 9",0.12 mg/dL
same,Creatine (CREAT),"[2]; i.v. 10 mg/kg on Days 1, 5, 9",0.16 mg/dL
same,alanine aminotransferase (ALT),"[2]; i.v. 10 mg/kg on Days 1, 5, 9",34 U/L
same,albumin (ALB),"[2]; i.v. 10 mg/kg on Days 1, 5, 9",2.70 g/dL
same,aspartate aminotransferase (AST),"[2]; i.v. 10 mg/kg on Days 1, 5, 9",119 U/L
same,blood urea nitrogen (BUN),"[2]; i.v. 10 mg/kg on Days 1, 5, 9",22 mg/dL
same,total Protein (PROT),"[2]; i.v. 10 mg/kg on Days 1, 5, 9",4.57 g/dL
same,total bilirubin (TBIL),"[2]; i.v. 10 mg/kg on Days 1, 5, 9",0.11 mg/dL
1590463 BCY17901 (CPXDAYLGCXSYCEPWX; not fully specified; non-natural residues; cyclised or stapled),Mean corpuscular volume (MCV),"[1]; i.v. 1 mg/kg on Days 1, 5, 9",40 fL
same,hematocrit (HCT),"[1]; i.v. 1 mg/kg on Days 1, 5, 9",48%
same,hemoglobin (HGB),"[1]; i.v. 1 mg/kg on Days 1, 5, 9",15 g/dL
same,mean corpuscular hemoglobin (MCH),"[1]; i.v. 1 mg/kg on Days 1, 5, 9",13 pg
same,mean corpuscular hemoglobin concentration (MCHC),"[1]; i.v. 1 mg/kg on Days 1, 5, 9",31 g/dL
same,red blood cell (RBC) count,"[1]; i.v. 1 mg/kg on Days 1, 5, 9",12 10^12/L
same,white blood cell (WBC) count,"[1]; i.v. 1 mg/kg on Days 1, 5, 9",7 10^3/μL
same,Mean corpuscular volume (MCV),"[1]; i.v. 10 mg/kg on Days 1, 5, 9",41 fL
same,hematocrit (HCT),"[1]; i.v. 10 mg/kg on Days 1, 5, 9",47%
same,hemoglobin (HGB),"[1]; i.v. 10 mg/kg on Days 1, 5, 9",15 g/dL
same,mean corpuscular hemoglobin (MCH),"[1]; i.v. 10 mg/kg on Days 1, 5, 9",13 pg
same,mean corpuscular hemoglobin concentration (MCHC),"[1]; i.v. 10 mg/kg on Days 1, 5, 9",31 g/dL
same,red blood cell (RBC) count,"[1]; i.v. 10 mg/kg on Days 1, 5, 9",11 10^12/L
same,white blood cell (WBC) count,"[1]; i.v. 10 mg/kg on Days 1, 5, 9",9 10^3/μL
same,Diaphragm mouse DMPK RNA (% control),"mouse DMPK RNA; i.v. 1 mg/kg on Days 1, 5, 9",57 % control
same,Gastrocnemius mouse DMPK RNA (% control),"mouse DMPK RNA; i.v. 1 mg/kg on Days 1, 5, 9",74 % control
same,Heart mouse DMPK RNA (% control),"mouse DMPK RNA; i.v. 1 mg/kg on Days 1, 5, 9",75 % control
same,Quadriceps mouse DMPK RNA (% control),"mouse DMPK RNA; i.v. 1 mg/kg on Days 1, 5, 9",79 % control
same,Tibialis Anterior mouse DMPK RNA (% control),"mouse DMPK RNA; i.v. 1 mg/kg on Days 1, 5, 9",71 % control
same,Diaphragm mouse DMPK RNA (% control),"mouse DMPK RNA; i.v. 10 mg/kg on Days 1, 5, 9",14 % control
same,Gastrocnemius mouse DMPK RNA (% control),"mouse DMPK RNA; i.v. 10 mg/kg on Days 1, 5, 9",15 % control
same,Heart mouse DMPK RNA (% control),"mouse DMPK RNA; i.v. 10 mg/kg on Days 1, 5, 9",44 % control
same,Quadriceps mouse DMPK RNA (% control),"mouse DMPK RNA; i.v. 10 mg/kg on Days 1, 5, 9",14 % control
same,Tibialis Anterior mouse DMPK RNA (% control),"mouse DMPK RNA; i.v. 10 mg/kg on Days 1, 5, 9",14 % control
same,Creatine (CREAT),"[2]; i.v. 1 mg/kg on Days 1, 5, 9",0.15 mg/dL
same,alanine aminotransferase (ALT),"[2]; i.v. 1 mg/kg on Days 1, 5, 9",65 U/L
same,albumin (ALB),"[2]; i.v. 1 mg/kg on Days 1, 5, 9",2.76 g/dL
same,aspartate aminotransferase (AST),"[2]; i.v. 1 mg/kg on Days 1, 5, 9",107 U/L
same,blood urea nitrogen (BUN),"[2]; i.v. 1 mg/kg on Days 1, 5, 9",23 mg/dL
same,total Protein (PROT),"[2]; i.v. 1 mg/kg on Days 1, 5, 9",4.73 g/dL
same,total bilirubin (TBIL),"[2]; i.v. 1 mg/kg on Days 1, 5, 9",0.13 mg/dL
same,Creatine (CREAT),"[2]; i.v. 10 mg/kg on Days 1, 5, 9",0.15 mg/dL
same,alanine aminotransferase (ALT),"[2]; i.v. 10 mg/kg on Days 1, 5, 9",35 U/L
same,albumin (ALB),"[2]; i.v. 10 mg/kg on Days 1, 5, 9",2.63 g/dL
same,aspartate aminotransferase (AST),"[2]; i.v. 10 mg/kg on Days 1, 5, 9",98 U/L
same,blood urea nitrogen (BUN),"[2]; i.v. 10 mg/kg on Days 1, 5, 9",23 mg/dL
same,total Protein (PROT),"[2]; i.v. 10 mg/kg on Days 1, 5, 9",4.53 g/dL
same,total bilirubin (TBIL),"[2]; i.v. 10 mg/kg on Days 1, 5, 9",0.14 mg/dL
1590463-BCY17896: modified oligonucleotide 1590463 conjugated to CD71 bicycle ligand BCY17896 through a BCN linker (CPXDAYLGCXSYCX; not fully specified; non-natural residues; cyclised or stapled),BAS (basophils),[1]; 1 mg/kg i.v.,0.07%
same,LYM (lymphocytes),[1]; 1 mg/kg i.v.,85%
same,MON (monocytes),[1]; 1 mg/kg i.v.,5%
same,NEU (neutrophils),[1]; 1 mg/kg i.v.,8%
same,PLT (platelets),[1]; 1 mg/kg i.v.,1170 10^9/L
same,RETI (reticulocytes),[1]; 1 mg/kg i.v.,439 10^3/μL
same,BAS (basophils),[1]; 10 mg/kg i.v.,0.07%
same,LYM (lymphocytes),[1]; 10 mg/kg i.v.,84%
same,MON (monocytes),[1]; 10 mg/kg i.v.,6%
same,NEU (neutrophils),[1]; 10 mg/kg i.v.,8%
same,PLT (platelets),[1]; 10 mg/kg i.v.,1087 10^9/L
same,RETI (reticulocytes),[1]; 10 mg/kg i.v.,389 10^3/μL
same,Diaphragm ED50,mouse DMPK RNA; [4],1.4 mg/kg
same,Gastrocnemius ED50,mouse DMPK RNA; [4],2.9 mg/kg
same,Quadriceps ED50,mouse DMPK RNA; [4],2.6 mg/kg
same,Tibialis Anterior ED50,mouse DMPK RNA; [4],3.3 mg/kg
same,Body weight Day 1,[3]; 1 mg/kg i.v.,27 g
same,Body weight Day 15,[3]; 1 mg/kg i.v.,28 g
same,Organ weight Kidney,[3]; 1 mg/kg i.v.,0.35 g
same,Organ weight Liver,[3]; 1 mg/kg i.v.,1.49 g
same,Organ weight Spleen,[3]; 1 mg/kg i.v.,0.07 g
same,Body weight Day 1,[3]; 10 mg/kg i.v.,24 g
same,Body weight Day 15,[3]; 10 mg/kg i.v.,25 g
same,Organ weight Kidney,[3]; 10 mg/kg i.v.,0.33 g
same,Organ weight Liver,[3]; 10 mg/kg i.v.,1.39 g
same,Organ weight Spleen,[3]; 10 mg/kg i.v.,0.07 g
